According to PMC3430215:

Molecular target: Dunaliella salina Hsp90 (DsHsp90) (Dunaliella salina)
Assay: SEC; Superdex G200 10/30 column on an AKTA system; 40 mM HEPES, 25 mM KCl, pH 7.5; apparent molecular weight from a standard curve of markers; single peak

In the case of “Dunaliella salina Hsp90 (DsHsp90) (natural protein)”, the stoichiometry N is reported as 2.
